Data published in article PMC5737657 (Nucleic Acids Research, 2017).

B1: VapB26 antitoxin (untagged, native, co-expressed with VapC26) (natural protein)
chain: MDKTTVYLPDELKAAVKRAARQRGVSEAQVIRESIRAAVGGAKPPPRGGLYAGSEPIARRVDELLAGFGER
B2: VapC26 toxin with N-terminal (His)6 tag (native, co-expressed with VapB26) (natural protein)
chain: MIIDTSALLAYFDAAEPDHAAVSECIDSSADALVVSPYVVAELDYLVATRVGVDAELAVLRELAGGAWELANCGAAEIEQAARIVTKYQDQRIGIADAANVVLADRYRTRTILTLDRRHFSALRPIGGGRFTVIP

Legend:
[1] = biological target: B2; assay: crystal structure
VapB26 Y51E = VapB26 Y51E (Mycobacterium tuberculosis, UniProt O53778 1-71, Y51E); assay: co-purification on a Ni2+ affinity column

Binder | binding result [1] | binding result (VapB26 Y51E)
B1 | binds | –
B2 | – | binds
